# Laboratory results published in patent publication US6380373B1, “Steroid receptor coactivator compositions and methods of use” (Baylor College of Medicine, priority 1995, dated 2002).
# B1: steroid receptor coactivator-one (SRC-1), full-length (protein)
# chain: MSIPRVNPSVNPSISPAHGVARSSTLPPSNSNMVSTRINRQQSSDLHSSSHSNSSNSQGSFGCSPGSQIVANVALNKGQASSQSSKPSLNLNNPPMEGTGISLAQFMSPRRQVTSGLATRPRMPNNSFPPNISTLSSPVGMTSSACNNNNRSYSNIPVTSLQGMNEGPNNSVGFSASSPVLRQMSSQNSPSRLNIQPAKAESKDNKEIASTLNEMIQSDNSSSDGKPLDSGLLHNNDRLSDGDSKYSQTSHKLVQLLTTTAEQQLRHADIDTSCKDVLSCTGTSNSASANSSGGSCPSSHSSLTARHKILHRLLQEGSPSDITTLSVEPDKKDSASTSVSVTGQVQGNSSIKLELDASKKKESKDHQLLRYLLDKDEKDLRSTPNLSLDDVKVKVEKKEQMDPCNTNPTPMTKATPEEIKLEAQSQFTADLDQFDQLLPTLEKAAQLPGLCETDRMDGAVTSVTIKSEILPASLQSATARPTSRLNRLPELELEAIDNQFGQPGTGDQIPWTNNTVTAINQSKSEDQCISSQLDELLCPPTTVEGRNDEKALLEQLVSFLSGKDETELAELDRALGIDKLVQGGGLDVLSERFPPQQATPPLIMEERPNLYSQPYSSPFPTANLPSPFQGMVRQKPSLGTMPVQVTPPRGAFSPGMGMQPRQTLNRPPAAPNQLRLQLQQRLQGQQQLIHQNRQAILNQFAATAPVGINMRSGMQQQITPQPPLNAQMLAQRQRELYSQQHRQRQLIQQQRAMLMRQQSFGNNLPPSSGLPVQTGNPRLPQGAPQQFPYPPNYGTNPGTPPASTSPFSQLAANPEASLANRNSMVSRGMTGNIGGQFGTGINPQMQQNVFQYPGAGMVPQGEANFAPSLSPGSSMVPMPIPPPQSSLLQQTPPASGYQSPDMKAWQQGAIGNNNVFSQAVQNQPTPAQPGVYNNMSITVSMAGGNTNVQNMNPMMAQMQMSSLQMPGMNTVCPEQINDPALRHTGLYCNQLSSTDLLKTEADGTQQVQQVQVFADVQCTVNLVGGDPYLNQPGPLGTQKPTSGPQTPQAQQKSLLQQLLTE
# How the values were obtained:
# Assay type in all cases: cell-based
# hPR = target: T1, hPR (Homo sapiens, UniProt P06401); assay: Squelching of hPR transactivation by hER and its reversal by SRC-1, CAT assay in HeLa cells
# T1 construct: expressed in transfected cells; host or cells: HeLa
# T1 sequence (P06401 1-933): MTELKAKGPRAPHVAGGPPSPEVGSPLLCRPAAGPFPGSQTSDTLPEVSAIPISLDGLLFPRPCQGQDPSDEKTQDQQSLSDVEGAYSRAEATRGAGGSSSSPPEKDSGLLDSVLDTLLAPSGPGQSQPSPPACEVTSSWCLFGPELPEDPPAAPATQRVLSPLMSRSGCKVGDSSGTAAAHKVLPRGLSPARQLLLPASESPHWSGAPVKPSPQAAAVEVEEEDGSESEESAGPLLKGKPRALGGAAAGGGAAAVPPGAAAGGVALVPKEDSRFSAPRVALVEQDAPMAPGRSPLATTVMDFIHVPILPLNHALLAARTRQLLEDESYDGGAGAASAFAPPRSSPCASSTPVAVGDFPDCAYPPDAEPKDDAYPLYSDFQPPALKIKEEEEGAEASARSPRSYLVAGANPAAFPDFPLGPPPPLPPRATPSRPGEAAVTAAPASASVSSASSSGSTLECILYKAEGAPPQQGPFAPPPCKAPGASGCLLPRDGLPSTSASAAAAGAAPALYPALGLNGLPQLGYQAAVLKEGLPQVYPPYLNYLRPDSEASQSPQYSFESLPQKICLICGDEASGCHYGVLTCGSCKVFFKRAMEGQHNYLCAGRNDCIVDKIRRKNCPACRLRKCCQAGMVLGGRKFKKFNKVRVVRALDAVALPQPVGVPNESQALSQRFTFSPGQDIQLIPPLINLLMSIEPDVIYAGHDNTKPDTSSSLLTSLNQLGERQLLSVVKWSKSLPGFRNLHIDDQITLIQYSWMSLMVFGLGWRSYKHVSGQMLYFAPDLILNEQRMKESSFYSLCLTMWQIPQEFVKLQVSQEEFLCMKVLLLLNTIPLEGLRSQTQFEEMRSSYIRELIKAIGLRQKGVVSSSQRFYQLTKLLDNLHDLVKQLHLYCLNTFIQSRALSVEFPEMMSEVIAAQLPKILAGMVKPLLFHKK
# Method: (§1) Lipofectin (GibcoBRL) was selected for transfection of Hela cells.
# HeLa cells were transfected with 1 μg of both hPR and hER expression vectors, together with 5 μg of PRE2-TATA-CAT and increasing amounts of SRC-1. Cells were then exposed to ligands R5020 and/or E2 (2×10^−8 M) and CAT activities determined 42 h later using 40 μg of proteins extract. The percentage of chloramphenicol conversion to the mono and diacetylated form was determined and represents the average of three independent experiments (Xn=3±SEM).
# GR = target: T2, GR (Homo sapiens, UniProt P04150); assay: CAT reporter assay GR/PRE2-TATA-CAT in HeLa cells; settings: 3 μg SRC-1, dexamethasone 2×10^−8 M
# T2 construct: expressed in transfected cells; host or cells: HeLa
# T2 sequence (P04150 1-777): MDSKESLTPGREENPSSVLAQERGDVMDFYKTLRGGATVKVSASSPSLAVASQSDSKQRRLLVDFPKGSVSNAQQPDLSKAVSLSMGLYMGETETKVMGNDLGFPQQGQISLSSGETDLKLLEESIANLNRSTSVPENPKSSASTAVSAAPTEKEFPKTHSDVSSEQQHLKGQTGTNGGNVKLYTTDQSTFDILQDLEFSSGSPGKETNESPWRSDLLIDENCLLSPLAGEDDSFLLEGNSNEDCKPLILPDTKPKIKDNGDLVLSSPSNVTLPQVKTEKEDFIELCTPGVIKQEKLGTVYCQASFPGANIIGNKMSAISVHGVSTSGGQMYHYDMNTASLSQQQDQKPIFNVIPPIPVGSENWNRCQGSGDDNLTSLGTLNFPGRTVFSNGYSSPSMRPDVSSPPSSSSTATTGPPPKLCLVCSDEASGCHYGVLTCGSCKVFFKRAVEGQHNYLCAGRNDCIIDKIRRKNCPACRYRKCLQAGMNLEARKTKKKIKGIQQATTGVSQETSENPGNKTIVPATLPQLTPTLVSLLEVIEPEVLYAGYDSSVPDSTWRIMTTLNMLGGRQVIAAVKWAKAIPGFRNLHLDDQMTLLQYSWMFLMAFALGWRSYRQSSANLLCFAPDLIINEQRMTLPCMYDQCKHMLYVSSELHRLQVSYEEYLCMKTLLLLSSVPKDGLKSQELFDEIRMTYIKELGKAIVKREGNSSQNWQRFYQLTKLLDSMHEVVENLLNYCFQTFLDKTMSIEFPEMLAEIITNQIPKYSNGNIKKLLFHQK
# Method: (§2) Biol. 13, 6501-6508), Sp1 and Sp1-tk-CAT (Courey, A. J. and Tjian, R. (1988), Cell 55, 887-898), CREB and CRE-tk-CAT (Chrivia, J. C. et al., (1993), Nature 365, 855) and GAL4VP16 and 17mer-tk-CAT (Baniahmad, A. et al., (1992), EMBO J. 11, 1015-1023) have been previously described and the above references are incorporated herein by reference in their entirety, including any drawings.
# as §1
# (§3) HeLa cells were cotransfected with 0.5 μg of cDNAs encoding various steroid receptors indicated and 5 μg of their cognates HREs containing reporters, including PR/PRE2-TATA-CAT, ER/ERE2-TATA-CAT, GR/PRE2-TATA-CAT, TR-/DR4-tk-CAT and RXR/DR1-tk-CAT, along with 3 μg of SRC-1 or empty expression vector. Cells were then treated with their corresponding ligands (PR:R5020, ER:estradiol, GR:dexamethasone, TR:Triac, RXR:9-cis retinoic acid) at a concentration of 2×10^−8M. The CAT activity of the reporter was determined using 14 μg of protein extract.
# RXR = target: T3, RXR (Mus musculus, UniProt P28704); assay: CAT reporter assay RXR/DR1-tk-CAT in HeLa cells; settings: 3 μg SRC-1, 9-cis retinoic acid 2×10^−8 M
# T3 construct: expressed in transfected cells; host or cells: HeLa
# T3 sequence (P28704 1-520): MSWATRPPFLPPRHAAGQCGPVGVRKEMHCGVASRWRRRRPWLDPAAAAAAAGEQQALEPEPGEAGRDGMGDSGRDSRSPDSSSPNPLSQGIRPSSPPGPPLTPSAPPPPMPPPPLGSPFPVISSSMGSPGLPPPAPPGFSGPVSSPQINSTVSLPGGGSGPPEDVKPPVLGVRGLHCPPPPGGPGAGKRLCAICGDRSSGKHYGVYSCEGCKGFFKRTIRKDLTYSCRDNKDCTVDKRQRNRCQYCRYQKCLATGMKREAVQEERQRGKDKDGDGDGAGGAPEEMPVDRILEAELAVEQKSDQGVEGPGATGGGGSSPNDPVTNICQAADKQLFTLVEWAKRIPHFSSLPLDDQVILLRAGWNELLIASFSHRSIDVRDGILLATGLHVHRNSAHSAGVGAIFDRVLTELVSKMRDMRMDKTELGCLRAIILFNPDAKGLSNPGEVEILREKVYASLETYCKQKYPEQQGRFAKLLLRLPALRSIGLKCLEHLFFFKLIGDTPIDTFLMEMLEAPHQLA
# Method: as §2, §1, §3
molecule,measurement,setting,value
B1,reversal of hER squelching of hPR transactivation,"hPR; HeLa cells, increasing amounts of SRC-1, dose-dependent, in the presence of estrogen",~16 fold
same,stimulation of PR transactivation,"hPR; highest concentration of SRC-1 (2 μg), without estrogen squelching",~5 fold
same,effect on GR transcriptional activity,GR,enhance
same,effect on RXR transcriptional activity,RXR,enhance
